US20240132578A1

Experiments:
Assay in all cases: cell-based or functional assay
[1] = target: HIV-1 JR-CSF Env S387A (HIV-1 isolate JR-CSF) (UniProt P20871)
[2] = target: HIV-1 JR-CSF Env G324A (HIV-1 isolate JR-CSF) (UniProt P20871)
[3] = target: HIV-1 JR-CSF Env R350A (HIV-1 isolate JR-CSF) (UniProt P20871)
[4] = target: HIV-1 envelope glycoprotein (Env) of isolate 93UG077 (HIV-1)
[5] = target: aMLV envelope protein (negative control pseudovirus)
[6] = target: aMLV envelope on pseudotyped virus (negative control) (aMLV)
[7] = target: HIV-1 SF162 envelope protein (Env) on pseudotyped virus (HIV-1 isolate SF162) (UniProt P19550)
[8] = target: HIV-1 Env of isolate APV-13 (Clade B) (HIV-1)
[9] = target: HIV-1 92RW020 envelope glycoprotein (Env), on pseudovirus (HIV-1 isolate 92RW020 (clade A))
[10] = target: HIV-1 JR-CSF Env I326A (HIV-1 isolate JR-CSF) (UniProt P20871)
[11] = target: HIV-1 Env of isolate 94KE105 (pseudovirus) (HIV-1)
[12] = target: HIV-1 Env of isolate MG RM-D-016 (subtype D) (HIV-1)
[13] = target: HIV-1 Env of isolate MGRM-C-027 (clade C pseudovirus) (HIV-1)
[14] = target: HIV-1 Env of isolate MG RM-D-020 (subtype D) (HIV-1)
[15] = target: HIV-1 Env of isolate MG RM-D-028 (subtype D) (HIV-1)
[16] = target: HIV-1 Env of isolate MG RM-C-022 (HIV-1)
[17] = target: HIV-1 envelope glycoprotein (Env) of isolate 92WR009 (HIV-1)
[18] = target: HIV-1 Env of isolate MGRM-F1-004 (subtype F) (HIV-1)
[19] = target: HIV-1 Env of isolate 6535.3 (subtype B), on pseudovirus (HIV-1)
[20] = target: HIV-1 Env of isolate MG RM-D-003 (subtype D) (HIV-1)
[21] = target: HIV-1 Env of isolate MG RM-D-024 (subtype D) (HIV-1)
[22] = target: HIV-1 Env of isolate MGRM-A-014 (pseudovirus) (HIV-1)
[23] = target: HIV-1 Env of isolate MGRM-Chronic-B-004 (subtype B), on pseudovirus (HIV-1)
[24] = target: HIV-1 envelope glycoprotein (Env) of isolate 92WR020 (HIV-1)
[25] = target: HIV-1 Env of pseudovirus 98CN009 (HIV-1)
[26] = target: HIV-1 Env of isolate 92UG114 (subtype D) (HIV-1)
[27] = target: HIV-1 Env of isolate MGRM-F1-012 (subtype F) (HIV-1)
[28] = target: HIV-1 Env of isolate MGRM-C-026 (clade C pseudovirus) (HIV-1)
[29] = target: HIV-1 Env of isolate MG RM-D-019 (subtype D) (HIV-1)
[30] = target: HIV-1 envelope glycoprotein (Env) of isolate 92RW008 (HIV-1)
[31] = target: HIV-1 Env of isolate MG RM-D-014 (subtype D) (HIV-1)
[32] = target: HIV-1 Env of isolate MGRM-C-024 (clade C pseudovirus) (HIV-1)
[33] = target: HIV-1 Env of isolate MG RM-D-013 (subtype D) (HIV-1)
[34] = target: HIV-1 Env of isolate MGRM-F1-010 (subtype F) (HIV-1)
[35] = target: HIV-1 Env of isolate 92UG046 (subtype D) (HIV-1)
[36] = target: HIV-1 Env of isolate MGRM-Chronic-B-018 (subtype B), on pseudovirus (HIV-1)
[37] = target: HIV-1 Env of isolate APV_17 (subtype B), on pseudovirus (HIV-1)
[38] = target: HIV-1 envelope glycoprotein (Env) of isolate 92WR021 (HIV-1)
[39] = target: HIV-1 Env of isolate 93TH305 (subtype B), on pseudovirus (HIV-1)
[40] = target: HIV-1 Env of isolate MGRM-F1-006 (subtype F) (HIV-1)
[41] = target: HIV-1 Env of isolate MG RM-D-002 (subtype D) (HIV-1)
[42] = target: HIV-1 envelope glycoprotein (Env) of isolate MG RM-A-003 (HIV-1)
[43] = target: HIV-1 Env of isolate 92UG024 (subtype D) (HIV-1)
[44] = target: HIV-1 Env of isolate MGRM-A-011 (pseudovirus) (HIV-1)

1443_C16 (PG16) (TCN-116) (antibody), sequence (VH): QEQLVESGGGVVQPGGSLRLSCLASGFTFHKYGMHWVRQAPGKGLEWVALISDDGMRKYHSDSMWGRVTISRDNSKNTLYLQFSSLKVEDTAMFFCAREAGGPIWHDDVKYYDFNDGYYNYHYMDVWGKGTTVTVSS
1443_C16 (PG16) (TCN-116) (antibody), sequence (VL): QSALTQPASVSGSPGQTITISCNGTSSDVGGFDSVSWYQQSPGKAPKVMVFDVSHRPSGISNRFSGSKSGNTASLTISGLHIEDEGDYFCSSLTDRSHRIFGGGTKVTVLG

## 5147_N06 (PGT-130) (antibody)
[1]
  Fold IC50 increase relative to wild-type: 0.7 fold
[2]
  Fold IC50 increase relative to wild-type: > 50 fold
[3]
  Fold IC50 increase relative to wild-type: 0.5 fold

## 5141_B17 (PGT-126) (antibody)
[4]
  Neutralization IC80: 0.102 µg/mL
  Neutralization IC90: 0.238 µg/mL
  Neutralization IC95: 0.577 µg/mL
  neutralization IC50: 0.0256 µg/mL
[5]
  Neutralization IC80: > 10 µg/mL
  Neutralization IC90: > 10 µg/mL
  Neutralization IC95: > 10 µg/mL
  neutralization IC50: > 10 µg/mL

## 5343_B08 (PGT-135) (antibody)
[1]
  Fold IC50 increase relative to wild-type: 0.6 fold

## 1495_C14 (PGC14) (antibody)
[6]
  IC50, Neutralizing Antibody Assay, Virus/Ab Incubation 1 hour: > 50 µg/mL
  IC50, Neutralizing Antibody Assay, Virus/Ab Incubation 18 hour: > 50 µg/mL
[7]
  IC50, Neutralizing Antibody Assay, Virus/Ab Incubation 1 hour: 0.0069 µg/mL
  IC50, Neutralizing Antibody Assay, Virus/Ab Incubation 18 hour: < 0.0025 µg/mL

## 1443_C16 (PG16) (TCN-116) (antibody)
[6]
  IC50, Neutralizing Antibody Assay, Virus/Ab Incubation 1 hour: > 50 µg/mL
  IC50, Neutralizing Antibody Assay, Virus/Ab Incubation 18 hour: > 50 µg/mL
[8]
  IC90 (neutralization of pseudovirus): > 50 µg/mL
[7]
  IC50, Neutralizing Antibody Assay, Virus/Ab Incubation 1 hour: > 50 µg/mL
  IC50, Neutralizing Antibody Assay, Virus/Ab Incubation 18 hour: > 50 µg/mL
[9]
  IC50 (ug/ml), pseudovirus neutralization, TZM-bl assay: 0.09 µg/mL

## 5114_A19 (PGT-128) (antibody)
[10]
  Fold IC50 increase relative to wild-type: 1.6 fold

## 1496_C09 (PG9) (TCN-109) (antibody)
[11]
  IC50 (µg/mL), pseudovirus neutralization: 37.9 µg/mL
[12]
  IC50 (µg/mL), pseudovirus neutralization: 0.098 µg/mL
[13]
  IC50 (µg/mL), single-round pseudovirus neutralization: 5.36 µg/mL
[14]
  IC50 (µg/mL), pseudovirus neutralization: 1.67 µg/mL
[15]
  IC50 (µg/mL), pseudovirus neutralization: 20.2 µg/mL
[16]
  IC50 (µg/mL), pseudovirus neutralization: 0.346 µg/mL
[17]
  IC50: 0.05 µg/mL
[18]
  IC50 (µg/mL), pseudovirus neutralization: 0.175 µg/mL
[19]
  IC50, single-round pseudovirus neutralization: 1.05 µg/mL
[20]
  IC50 (µg/mL), pseudovirus neutralization: 0.033 µg/mL
[21]
  IC50 (µg/mL), pseudovirus neutralization: 0.038 µg/mL
[22]
  IC50 (µg/mL), pseudovirus neutralization: 1.25 µg/mL
[23]
  IC50, single-round pseudovirus neutralization: 0.533 µg/mL
[24]
  IC50: 0.141 µg/mL
[25]
  IC50, pseudovirus neutralization: 0.371 µg/mL
[26]
  IC50 (µg/mL), pseudovirus neutralization: 40.6 µg/mL
[27]
  IC50 (µg/mL), pseudovirus neutralization: 0.023 µg/mL
[28]
  IC50 (µg/mL), single-round pseudovirus neutralization: 0.06 µg/mL
[29]
  IC50 (µg/mL), pseudovirus neutralization: 0.038 µg/mL
[30]
  IC50: 0.006 µg/mL
[31]
  IC50 (µg/mL), pseudovirus neutralization: 0.023 µg/mL
[32]
  IC50 (µg/mL), single-round pseudovirus neutralization: 0.227 µg/mL
[33]
  IC50 (µg/mL), pseudovirus neutralization: 0.021 µg/mL
[34]
  IC50 (µg/mL), pseudovirus neutralization: 0.012 µg/mL
[35]
  IC50 (µg/mL), pseudovirus neutralization: 1.86 µg/mL
[36]
  IC50, single-round pseudovirus neutralization: 0.216 µg/mL
[37]
  IC50, single-round pseudovirus neutralization: 34.8 µg/mL
[38]
  IC50: 0.027 µg/mL
[39]
  IC50, single-round pseudovirus neutralization: 8.12 µg/mL
[40]
  IC50 (µg/mL), pseudovirus neutralization: 7.25 µg/mL
[41]
  IC50 (µg/mL), pseudovirus neutralization: 0.021 µg/mL
[42]
  IC50: 1.94 µg/mL
[43]
  IC50 (µg/mL), pseudovirus neutralization: 1.86 µg/mL
[9]
  IC50 (ug/ml), pseudovirus neutralization, TZM-bl assay: 0.1 µg/mL
[44]
  IC50 (µg/mL), pseudovirus neutralization: 0.033 µg/mL

## PGV04 (antibody)
[11]
  IC50 (µg/mL), pseudovirus neutralization: 2.98 µg/mL
[12]
  IC50 (µg/mL), pseudovirus neutralization: 0.201 µg/mL
[13]
  IC50 (µg/mL), single-round pseudovirus neutralization: 2.76 µg/mL
[14]
  IC50 (µg/mL), pseudovirus neutralization: 0.097 µg/mL
[15]
  IC50 (µg/mL), pseudovirus neutralization: 1.01 µg/mL
[16]
  IC50 (µg/mL), pseudovirus neutralization: 18.3 µg/mL
[17]
  IC50: 0.108 µg/mL
[18]
  IC50 (µg/mL), pseudovirus neutralization: 0.58 µg/mL
[19]
  IC50, single-round pseudovirus neutralization: 0.757 µg/mL
[20]
  IC50 (µg/mL), pseudovirus neutralization: > 50 µg/mL
[21]
  IC50 (µg/mL), pseudovirus neutralization: > 50 µg/mL
[22]
  IC50 (µg/mL), pseudovirus neutralization: 0.172 µg/mL
[23]
  IC50, single-round pseudovirus neutralization: 0.047 µg/mL
[24]
  IC50: 0.055 µg/mL
[25]
  IC50, pseudovirus neutralization: 0.0125 µg/mL
[26]
  IC50 (µg/mL), pseudovirus neutralization: 0.461 µg/mL
[27]
  IC50 (µg/mL), pseudovirus neutralization: 0.25 µg/mL
[28]
  IC50 (µg/mL), single-round pseudovirus neutralization: 0.303 µg/mL
[29]
  IC50 (µg/mL), pseudovirus neutralization: 0.35 µg/mL
[30]
  IC50: 0.014 µg/mL
[31]
  IC50 (µg/mL), pseudovirus neutralization: 0.194 µg/mL
[32]
  IC50 (µg/mL), single-round pseudovirus neutralization: > 50 µg/mL
[33]
  IC50 (µg/mL), pseudovirus neutralization: 0.088 µg/mL
[34]
  IC50 (µg/mL), pseudovirus neutralization: 0.184 µg/mL
[4]
  IC50: 0.083 µg/mL
[35]
  IC50 (µg/mL), pseudovirus neutralization: 22.4 µg/mL
[36]
  IC50, single-round pseudovirus neutralization: 0.164 µg/mL
[37]
  IC50, single-round pseudovirus neutralization: 0.309 µg/mL
[38]
  IC50: 0.038 µg/mL
[39]
  IC50, single-round pseudovirus neutralization: 0.255 µg/mL
[40]
  IC50 (µg/mL), pseudovirus neutralization: > 50 µg/mL
[41]
  IC50 (µg/mL), pseudovirus neutralization: 0.322 µg/mL
[42]
  IC50: 0.128 µg/mL
[43]
  IC50 (µg/mL), pseudovirus neutralization: 0.201 µg/mL
[44]
  IC50 (µg/mL), pseudovirus neutralization: 0.09 µg/mL

## 5136_H01 (PGT-131) (antibody)
[3]
  Fold IC50 increase relative to wild-type: 1.3 fold

## 5145_B14 (PGT-127) (antibody)
[10]
  Fold IC50 increase relative to wild-type: 3.5 fold

## b12 (antibody)
[8]
  IC90 (neutralization of pseudovirus): > 50 µg/mL

## 4858_P08 (PGT-123) (antibody)
[2]
  Fold IC50 increase relative to wild-type: 14.5 fold
[5]
  IC50, pseudovirus neutralization: > 10 µg/mL
  IC80 (pseudovirus neutralization): > 10 µg/mL
  IC90 (pseudovirus neutralization): > 10 µg/mL
  IC95 (pseudovirus neutralization): > 10 µg/mL
